Test results from patent publication US20240279318A1 (NANJING LEGEND BIOTECH, published 2024).
Values belong to the binder of their own block, whether it stands above or below them.

How the values were obtained:
[1] = molecular target: T1, AFP158/HLA-A*02:01 complex (human); test: SPR, scFv-mIgG2aFc from supernatant captured, complex as analyte
T1 construct: biotinylated on the BSP by BirA for ELISA and panning; also called biotinylated AFP158/HLA-A*02:01 complex; Bio-AFP158
Experimental: (§1) The binding affinity between selected antibodies and AFP158/HLA-A*02:01 complex was determined by surface plasmon resonance (SPR) on a BIAcore T200 instrument (GE Healthcare). The experiment was carried out as follows. The purified sdAb/scFv-mIgG2aFc protein were captured through mIgG2a-Fc onto the sensorchip. […] On-rate (kₐ) and off-rate (kd) were calculated based on association and dissociation curve, and were used to estimate the equilibrium dissociation constant (KD).
(§2) Humanized heavy chains and light chains were combined, and used to produce a series of humanized antibodies. These antibodies were synthesized as scFv-mIgG2aFc and transiently produced using HEK293 cells. The antibodies in the supernatant were subjected to SPR affinity assessment.

[2] = molecular target: T2, RP1 peptide loaded T2 cells (human, UniProt P61769 21-119); test: flow cytometry, peptide-loaded T2 cells
T2 construct: whole, on cells; also called RP1/T2

[3] = molecular target: T3, OR6C1 peptide loaded T2 cells (human, UniProt P61769 21-119); test: flow cytometry, peptide-loaded T2 cells
T3 construct: whole, on cells; also called OR6C1/T2

[4] = molecular target: T4, RCL1 peptide loaded T2 cells (human); test: flow cytometry, peptide-loaded T2 cells
T4 construct: whole, on cells; also called RCL1/T2

[5] = molecular target: T5, NR2E1 peptide loaded T2 cells (human, UniProt P61769 21-119); test: flow cytometry, peptide-loaded T2 cells
T5 construct: whole, on cells; also called NR2E1/T2

[6] = molecular target: T6, ATG9A peptide loaded T2 cells (human, UniProt P61769 21-119); test: flow cytometry, peptide-loaded T2 cells
T6 construct: whole, on cells; also called ATG9A/T2

[7] = molecular target: T7, PTP4A1 peptide loaded T2 cells (human, UniProt P61769 21-119); test: flow cytometry, peptide-loaded T2 cells
T7 construct: whole, on cells; also called PTP4A1-pulsed T2 cells

[8] = molecular target: T8, OR1I1 peptide loaded T2 cells (human, UniProt P61769 21-119); test: flow cytometry, peptide-loaded T2 cells
T8 construct: whole, on cells; also called OR1I1/T2

[9] = molecular target: T9, OR51B6 peptide loaded T2 cells (human, UniProt P61769 21-119); test: flow cytometry, peptide-loaded T2 cells
T9 construct: whole, on cells; also called OR51B6/T2

[10] = molecular target: T10, CDC14A peptide loaded T2 cells (human, UniProt P61769 21-119); test: flow cytometry, peptide-loaded T2 cells
T10 construct: whole, on cells; also called CDC14A/T2

[11] = molecular target: T11, ARNTL peptide loaded T2 cells (human, UniProt P61769 21-119); test: flow cytometry, peptide-loaded T2 cells
T11 construct: whole, on cells; also called ARNTL/T2

[12] = molecular target: T12, ZNF566 peptide loaded T2 cells (human, UniProt P61769 21-119); test: flow cytometry, peptide-loaded T2 cells
T12 construct: whole, on cells; also called ZNF566/T2

[13] = molecular target: T13, BRCA2 peptide loaded T2 cells (human); test: flow cytometry, peptide-loaded T2 cells
T13 construct: whole, on cells; also called BRCA2/T2

[14] = molecular target: T7, PTP4A1 peptide loaded T2 cells; test: flow cytometry, 30 or 50 nM i647-labelled antibody
Experimental: At the concentration of 30 or 50 nM, binding of 7 antibodies to T2 cells loaded with AFP158, 50 endogenous self-peptides and 12 homologous peptides were carried out using flow cytometry.

[15] = molecular target: T1, AFP158/HLA-A*02:01 complex; test: SPR, scFv-mIgG2aFc from supernatant captured, complex as analyte; remark: listed apart in the source
Experimental: as §1, §2

[16] = molecular target: T1, AFP158/HLA-A*02:01 complex; test: SPR, antibody captured via mIgG2a-Fc, complex as analyte
Experimental: as §1

Kd [1]: 360 nM
koff [1]: 0.062 s⁻¹
kon [1]: 170000 M⁻¹ s⁻¹
binding result [2]: no binding (tested: 30 or 50 nM)
binding result [3]: no binding (tested: 30 or 50 nM)
binding result [4]: no binding (tested: 30 or 50 nM)
binding result [5]: no binding (tested: 30 or 50 nM)
binding result [6]: no binding (tested: 30 or 50 nM)
binding result [7]: no binding (tested: 30 or 50 nM)
binding result [8]: no binding (tested: 30 or 50 nM)
binding result [9]: no binding (tested: 30 or 50 nM)
binding result [10]: no binding (tested: 30 or 50 nM)
binding result [11]: no binding (tested: 30 or 50 nM)
binding result [12]: no binding (tested: 30 or 50 nM)
binding result [13]: no binding (tested: 30 or 50 nM)
B1: AS170036 VL1VH1 scFv-mIgG2aFc (Fc fusion, not shown: a dimerising Fc or GST)
chain: QSALTQPRSVSGSPGQSVTISCAGTSSDVGSENYVSWYQQHPGKAPKLMIYQVNKRASGVPDRFSGSKSGNTASLTISGLQAEDEADYYCASYRSSDHNIVFGGGTKLTVLGGGGSGGGGSGGGGSEVQLVESGGGLVQPGGSLRLSCAASGFTFSSYAMSWVRQAPGKGLEWVSTINSGTGSPYYADSVKGRFTISRDNSKNTLYLQMNSLRAEDTAVYYCAKNFFDGSWFLGPPAMDYWGQGTLVTVSS
notes: Humanized

binding result [14]: binds
B2: ET1402L1 scFv fused to a C-terminal mouse IgG2a Fc region (Fc fusion, not shown: a dimerising Fc or GST)
chain: QSVLTQPASVSGSPGQSITISCTGTSSDVGGYNYVSWYQQHPGKAPKLMIYDVNNRPSEVSNRFSGSKSGNTASLTISGLQAEDEADYYCSSYTTGSRAVFGGGTKLTVLGGGGSGGGGSGGGGSEVQLVQSGAEVKKPGESLTISCKASGYSFPNYWITWVRQMSGGGLEWMGRIDPGDSYTTYNPSFQGHVTISIDKSTNTAYLHWNSLKASDTAMYYCARYYVSLVDIWGQGTLVTVSS
notes: also called positive control antibody

Kd [15]: 47 nM
koff [15]: 0.0075 s⁻¹
kon [15]: 160000 M⁻¹ s⁻¹
binding result [2]: no binding (tested: 30 or 50 nM)
binding result [3]: no binding (tested: 30 or 50 nM)
binding result [4]: no binding (tested: 30 or 50 nM)
binding result [5]: no binding (tested: 30 or 50 nM)
binding result [6]: no binding (tested: 30 or 50 nM)
binding result [7]: no binding (tested: 30 or 50 nM)
binding result [8]: no binding (tested: 30 or 50 nM)
binding result [9]: no binding (tested: 30 or 50 nM)
binding result [10]: no binding (tested: 30 or 50 nM)
binding result [11]: no binding (tested: 30 or 50 nM)
binding result [12]: no binding (tested: 30 or 50 nM)
binding result [13]: no binding (tested: 30 or 50 nM)
Kd [16]: 67 nM
koff [16]: 0.0086 s⁻¹
kon [16]: 130000 M⁻¹ s⁻¹
B3: AS179732 scFv-mIgG2aFc (Fc fusion, not shown: a dimerising Fc or GST)
chain: NFMLTQPPSMSGSPRQSVTISCTGSSSNIGGNYVNWYQHLPGTAPKLLIYDNSNRASGVPERFSGSKSGSSASLTITGLQAEDEGDYYCASWDDSLSGAVFGGGTHLTVLGGGGSGGGGSGGGGSEVQLVESGGGLVQPGGSLRLSCAASGFTFLNYAMSWVRQAPGKGLEWVSSNSGAGSTYYSDSVKGRFTISRDYAKNVVYLQLNSLKTEDTGMYYCAKGTNVGSWSSLHYWGQGTQVTVSS
notes: Camel scFv; i647-labelled for flow cytometry

Kd [1]: 450 nM
koff [1]: 0.19 s⁻¹
kon [1]: 430000 M⁻¹ s⁻¹
binding result [2]: no binding (tested: 30 or 50 nM)
binding result [3]: no binding (tested: 30 or 50 nM)
binding result [4]: no binding (tested: 30 or 50 nM)
binding result [5]: no binding (tested: 30 or 50 nM)
binding result [6]: no binding (tested: 30 or 50 nM)
binding result [7]: no binding (tested: 30 or 50 nM)
binding result [8]: no binding (tested: 30 or 50 nM)
binding result [9]: no binding (tested: 30 or 50 nM)
binding result [10]: no binding (tested: 30 or 50 nM)
binding result [11]: no binding (tested: 30 or 50 nM)
binding result [12]: no binding (tested: 30 or 50 nM)
binding result [13]: no binding (tested: 30 or 50 nM)
Kd [16]: 250 nM
koff [16]: 0.06 s⁻¹
kon [16]: 240000 M⁻¹ s⁻¹
B4: AS170036 scFv-mIgG2aFc (Fc fusion, not shown: a dimerising Fc or GST)
chain: QLVLTQPSSVSGTPGQTVTISCAGTSSDVGSENYVSWYRQLPGTAPKLLIYQVNKRASGIADRFSGSKSGNTASMTISGLQSADEADYYCASYRSSDHNIVFGGGTHLTVLGGGGSGGGGSGGGGSAVQLVESGGGLVQPGGSLRLSCTASGFTFSSYAMSWVRQAPGKGLEWVSTINSGTGSPYYADSVKGRFTISRDNAKNTLYLQLNSLKTEDTAMYYCAKNFFDGSWFLGPPAMDYWGKGTLVTISS
notes: Camel scFv
